In PMC7515705:

Target: T1, YBEY-3 × FLAG (human), P58557
T1 chain: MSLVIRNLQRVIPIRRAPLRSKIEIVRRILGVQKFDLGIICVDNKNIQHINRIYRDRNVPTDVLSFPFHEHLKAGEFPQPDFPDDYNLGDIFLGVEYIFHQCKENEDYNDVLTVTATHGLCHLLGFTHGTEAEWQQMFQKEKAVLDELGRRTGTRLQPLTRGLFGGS
Assay: affinity purification with mass spectrometry; α-FLAG antibody and protein A-sepharose on mitochondrial lysates (0.5% n-dodecyl-β-D-maltoside, 20 mM Tris-HCl pH 7.5, 150 mM KCl, 4°C) of SAL001 cells expressing YBEY-3 × FLAG; parental Flp-In T-REx 293 as control; LC-MS/MS, spectral counts; YBEY:p32 stoichiometry from spectral abundance factors
Conditions: remark: other sources report otherwise

stoichiometry N: 1
B1: p32/C1QBP, endogenous, Q07021 74-282 (natural protein)
chain: LHTDGDKAFVDFLSDEIKEERKIQKHKTLPKMSGGWELELNGTEAKLVRKVAGEKITVTFNINNSIPPTFDGEEEPSQGQKVEEQEPELTSTPNFVVEVIKNDDGKKALVLDCHYPEDEVGQEDEAESDIFSIREVSFQSTGESEWKDTNYTLNTDSLDWALYDHLMDFLADRGVDNTFADELVELSTALEHQEYITFLEDLKSFVKSQ
